The text below walks through data of paper PMC7782203.

In general, stoichiometry N refers to a count of units in the complex or per binding partner.

The target in the experiment is recombinant human protective protein/cathepsin A (rhPPCA), 54-kDa precursor form (human). As to the kind of experiment: SEC.

Regarding “recombinant human protective protein/cathepsin A (rhPPCA), 54-kDa precursor form (enzyme)”, the stoichiometry N was determined as 2.
